In article PMC7022988, “General and Genomic DNA-Binding Specificity for the Thermus thermophilus HB8 Transcription Factor TTHB023” one finds Kd data, which are given here for 10 molecules.

Where a chain is given by its changes, count along the chain named.

The target in data set [1] is T1, TTHB023 (PfmR) (Thermus thermophilus HB8) (UniProt Q53WD9).
T1 sequence: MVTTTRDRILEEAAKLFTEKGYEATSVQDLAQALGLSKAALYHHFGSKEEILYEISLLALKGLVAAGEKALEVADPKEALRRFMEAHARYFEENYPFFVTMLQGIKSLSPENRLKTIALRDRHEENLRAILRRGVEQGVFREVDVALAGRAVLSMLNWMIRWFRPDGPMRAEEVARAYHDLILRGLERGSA
The data set can be described thus: BLI. The conditions noted are these: BLI: 20 mM Tris-Cl pH 7.7, 100 mM NaCl, 1 mM EDTA, 0.05% Tween 20, 1.4 nM biotin-DNA loaded at 37 °C, 3.7-300 nM protein; EMSA: 1x NEB CutSmart buffer, 55 °C …. In general terms: Mobility shift assays separate free from complexed probe on a gel.

Data set [2] addresses T2, TTHB023 (PfmR) (Thermus thermophilus HB8, UniProt Q53WD9 1-191).
T2 sequence: T1 sequence
The data set can be described thus: BLI; printed koff/kon (1.072e-4/2.350e5) does not match printed KD; BLI: 20 mM Tris-Cl pH 7.7, 100 mM NaCl, 1 mM EDTA, 0.05% Tween 20, 1.4 nM biotin-DNA loaded at 37 °C, 3.7-300 nM protein; EMSA: 1x NEB CutSmart buffer, 55 °C 20 min, 1 ng DNA in 5 µL, 10% native PAGE. The conditions noted are these: protein: recombinant; chain copies: 2; label: 5' biotin-dT on strand 2; blunt. On the technique in general: Biolayer interferometry detects binding as a change in optical thickness at a sensor tip.

Data set [3] deals with T2, TTHB023 (PfmR). The data set can be described thus: BLI; BLI: 20 mM Tris-Cl pH 7.7, 100 mM NaCl, 1 mM EDTA, 0.05% Tween 20, 1.4 nM biotin-DNA loaded at 37 °C, 3.7-300 nM protein; EMSA: 1x NEB CutSmart buffer, 55 °C 20 min, 1 ng DNA in 5 µL, 10% native PAGE. The conditions noted are these: protein: recombinant; chain copies: 2; label: 5' biotin-dT on strand 2; blunt.
Data set [4] deals with T2, TTHB023 (PfmR). The data set can be described thus: BLI; slight effect only at 300 nM, nonspecific; Kd extrapolated; BLI: 20 mM Tris-Cl pH 7.7, 100 mM NaCl, 1 mM EDTA, 0.05% Tween 20, 1.4 nM biotin-DNA loaded at 37 °C, 3.7-300 nM protein; EMSA: 1x NEB CutSmart buffer, 55 °C 20 min, 1 ng DNA in 5 µL, 10% native PAGE. Particulars: protein: recombinant; chain copies: 2; label: 5' biotin-dT on strand 2; blunt.

In the case of “CTAGGAATTCGTGCAGAGGTGAATCTGACCGATCGGTCAGTTACCATCCCTCCAGAAGCTTGGACA (double strand) [ST2_B023_R6_wt consensus (BLI probe)]”, the Kd in data set [1] came out at 2.1 nM.

B1: m1 (dsDNA)
DNA 1: CTAGGAATTCGTGCAGAGGTGAATGTGACCGATCGGTCAGTTACCATCCCTCCAGAAGCTTGGACA
DNA 2: TGTCCAAGCTTCTGGAGGGATGGTAACTGACCGATCGGTCACATTCACCTCTGCACGAATTCCTAG
In the case of B1, the Kd with TTHB023 (PfmR) [2] was 4.56 nM.

B2: m4 (dsDNA)
DNA 1: B1 DNA 1 with G25C, A28C
DNA 2: B1 DNA 2 with T39G, C42G
Take B2: the Kd with TTHB023 (PfmR) [3] is 27.8 nM.

B3: m6 (dsDNA)
DNA 1: B1 DNA 1 with G25C, C30G
DNA 2: B1 DNA 2 with G37C, C42G
Take B3: the dissociation constant (Kd) with TTHB023 (PfmR) [3] was determined as 279 nM.

B4: m8 (dsDNA)
DNA 1: B1 DNA 1 with G25C, A32C
DNA 2: B1 DNA 2 with T35G, C42G
On to B4, for which the dissociation constant (Kd) with TTHB023 (PfmR) [3] came to 59.5 nM.

B5: m2 (dsDNA)
DNA 1: B1 DNA 1 with G25C, T26G
DNA 2: B1 DNA 2 with A41C, C42G
Take B5: the dissociation constant (Kd) with TTHB023 (PfmR) [3] came to 23 nM.

B6: m5 (dsDNA)
DNA 1: B1 DNA 1 with G25C, C29T
DNA 2: B1 DNA 2 with G38A, C42G
With B6, the Kd with TTHB023 (PfmR) [3] turned out to be 53.1 nM.

B7: m7 (dsDNA)
DNA 1: B1 DNA 1 with G25C, G31C
DNA 2: B1 DNA 2 with C36G, C42G
As to B7, the Kd with TTHB023 (PfmR) [3] was 205 nM.

B8: m3 (dsDNA)
DNA 1: B1 DNA 1 with G25C, G27C
DNA 2: B1 DNA 2 with C40G, C42G
As to B8, the Kd with TTHB023 (PfmR) [3] was found to be 6.62 nM.

B9: REPSAis control (dsDNA)
DNA 1: CTAGGAATTCGTGCAGAGGTGAATCGTCATAGAATTCGTTACCATCCCTCCAGAAGCTTGGACA
DNA 2: TGTCCAAGCTTCTGGAGGGATGGTAACGAATTCTATGACGATTCACCTCTGCACGAATTCCTAG
Take B9: the Kd with TTHB023 (PfmR) [4] was 138000 nM.

As usually defined, the Kd is a measure of binding affinity in units of concentration.
